Experiment: label from the status in PepcDB records

Sequence: MKKLLTFIMACVISLGATAQISEKAFEKWHQNKYSMFIHFGLYSELGGVWEGNPVTRGYSEQIQSFAGIFSDWYGDTALRFNPTLFDADAIVSLAKEAGMRSIIITTKHHDGFCMFRTATTDYNSYDATPGKRDFIKEMAEACKRGGINFGIYFSLIDWHFPQAYPISSHNCDFITPQHHEFTKAQVTELLTNYGPISELWFDMGSNTPEQSKELYQLVHRLQPDCMVSGRLGNDQYDFSVMADNTYPEGSLQTAWQTAASMFDETWSYRSWQKRGDVHTKAMEKLRSLINVVSHGGNFLLNIGPKGDGSVVPFEREVLKEIGIWLKKNGEAIYGTEASPFREQFEWGTITRKGNNLYLILSGNRPADGKITLNVPGCKLQKADIKAIQKGQEMIFTLPADAYGKDIQVICATFDQPVKPQPMAAQRTPNYSYSCFDYYSNYRSTVSYQWSINKSNLNALEFTYTPQENGKELLVEVDGIPYTVTLDAGKAQALNLPSKTVWGQRYFCGPGSGLFDAPATIHTDPDKAPVRKGQWKEVNEEKAMFPSNILESYFLMQQVESPKAQDILVDVGAGNGIEIYLNGKSVMKHLNPYRCKFREEKVLLPLQKGSNQIVVRIYNRFEKETGYLLRPSAEQVIYKQKFTLPQVAKGKVHTVVVKQNNLPSIHKDTELSNLKVEAK
- protein production: failed

Sequence: KKKSIPQPTNALKSFNWSKLPENKLEGTVWTEIDDTKVFKILDLEDLERTFSAYQRQQDFFVNSNSKQKEADAIDDTLSSKLKVKELSVIDGRRAQNCNILLSRLKLSNDEIKRAILTMDEQEDLPKDMLEQLLKFVPEKSDIDLLEEHKHELDRMAKADRFLFEMSRINHYQQRLQSLYFKKKFAERVAEVKPKVEAIRSGSEEVFRSGALKQLLEVVLAFGNYMNKGQRGNAYGFKISSLNKIADTKSSIDKNITLLHYLITIVENKYPSVLNLNEELRDIPQAAKVN
- protein production: failed

Sequence: MEGYRLLYPMRTYLIVSGHGEETNVMAADWVTVVSFDPFIVGVAVAPKRTTHKLIKKYGEFVISVPSLDVLRDVWIAGTKKGPSKLKEMSVTLIPSKKVKVPSIEEALANIECRVIDARSYGDHTFFVGEVVGYTYKDYAFEKGKPNLKAKFLAHVSWSEFVTFSEKVHKAE
- protein production: not failed

Sequence: DHLILLPGWGLGSAPLEPLRDALHEREPHLNVLIEPLPSLDDAADWLDELDDNLPRDSWLAGWSLGGMLAGELAARRGDDCRGLLTLASNPCFRVREDWPNAMPAETFEDFFEAFLLEPHLTRKRFTLLVSQGARDPRTLARQLQVALPQLEREALVAGLQLLGQLDTRAALENFRGPQLHLFAEADALVPLAAAEALLEWLPDVEVSTLAASHGLPLECPDEVAGAILRFLRE
- protein production: failed

Sequence: MLFAAEGGGFFSSSASGYSNGLALLLLGQKTEQKPIKVSSQWNHYHLVLEDSDTGFRLDSSKNWLSSACTSLICFGRKSERLESEGKKDEAPSVEDYNNCEVTNRFALKSSLKKRSFSDVVIGDDDVSRDGVVDHIDRRKVQWPDTCGIEIAEVREFEPRYGCFLL
- protein production: failed

Sequence: MEMIRGRGIPNGVVQVPNLSANNLLQKFFIASNHFCQRDSEHGENQQEAKKREDEAEEDEKDVELTLGLSLNGQFGTDPRSRKRRHFELGRSSSIPEGFVFDEQRSGGGNGGDMRRIVGRGGSDMFQLDRTRSLPVVTEMDIEKERKVSEKTRAFMESPVTNRGAYLTKDKNRGQAVETEKPRAFLEFKIPPTKEGKKEKDRLVVTGPVNGKGKNGNTAKKQKNNVENSGMEKARNILEDMPCVSTRDVGADGKRVEGFLYWYGGNKEEVKIVCVCHGSFLSPAEFVRHGGGTVSDDDGGDVMINPLRHIVVKLPSSSI
- protein production: failed

Sequence: MFKHCLICTDFSDGLQRLAGFVEELSLSGITKLIFLHTVSVWEDEHIADVDESKLKEAKTYLESLVGQVPPGIEVKVEVSSVRYVDLVNQLVEQEAIDLIINGMPVRSNLESKLFGSHTLSLAKSTKVPVMILRPQLVSTYTVEEMALRCQHLWRNLLVPYDASSAGNYLIERLKSALEKAPPGKVESCYFLSILEDGMRRPELLEIRRQEAEAKLAEIKQQFSPLVPNIITEVRHGSPVQEILDTAFVNDITAIAVASRRATLLDWTVPSLTDSILNRSWFPLLFFSPKG
- protein production: failed

Sequence: MKNEGKKGTEQAKKPEKTKITENEINGNESGKQSFEVDRRSVYRCVQCGTCRSVCPVFDVVGWESANTRGRMLIIKSLLEGRPPSEDMLPSLASCTTCGICAVKCPAGVKPPKVVEAARAQLVKCGITTEAQKNLKSTIMTYGNSFGETRDRKHWLSEVERSQLPEKSDYVYFVGCFDSYRYPEFAKKTFGILQQFGVTLLPDEQCCASPLLRTGFKEDAEKVMKHNLEQIRKVGAHTIITSCAGCYTTLKNNYPEELKVISLPEFLVEHLEELNLKKLDLTVTYHDPCHLGRHNKVYDAPRKVIQAICTLKEMKYIKENARCCGGGGGVRTGYPDISLELARNRLKDVPEGVDYIVTSCPLCVRNLRDAGGDIEVIDIVELVAMAME
- protein production: failed
